# Test results published in patent publication US11161912B2, “Heparanase-neutralizing monoclonal antibodies” (Technion Research & Development Foundation Limited, priority 2015, dated 2021).
# B1: mAb 9E8: monoclonal IgM raised against KKDC peptide (Lys158-Asn171) of heparanase; VH SEQ ID NO: 7, VL SEQ ID NO: 8 (antibody)
# VH: EVKLLESGGGLVQPGGSLKLSCAASGFDFSRYWMSWVRQAPGKGLEWIGEINPDSSTINYTPSLKDKFIISRDNAKNTLYLQMSKVRSEDTALYYCARRGYEGNYAMDYWGQGTSVTVSSESQSFPNVFPLVSCESPLSDKNLVAMGCLAR
# VL: DIVMTQAAPSVPVTPGESVSISCRSSKSLLHSNGNTYLYWFLQRPGQSPQLLIYRMSNLASGVPDRFSGSGSGTAFTLRISRVEAEDVGVYYCMQHLEYPFTFGSGTKLEIKRADAAPTVSIFPPSSEQLTSGGASVVCFL
# modifications: IgM constant regions
# What was measured:
# [1] = target: T1, recombinant active heparanase (Homo sapiens, UniProt Q9Y251, DEL111-157/INS109GSGSG); assay: Heparanase enzymatic activity on 35S-labelled ECM, enzyme pre-incubated with antibody; type: biochemical; details: antibody 2 μg/ml, heparanase 200 ng, pre-incubated 2 h on ice
# T1 sequence (Q9Y251 with tags, fused parts or gaps INS109GSGSG/DEL111-157): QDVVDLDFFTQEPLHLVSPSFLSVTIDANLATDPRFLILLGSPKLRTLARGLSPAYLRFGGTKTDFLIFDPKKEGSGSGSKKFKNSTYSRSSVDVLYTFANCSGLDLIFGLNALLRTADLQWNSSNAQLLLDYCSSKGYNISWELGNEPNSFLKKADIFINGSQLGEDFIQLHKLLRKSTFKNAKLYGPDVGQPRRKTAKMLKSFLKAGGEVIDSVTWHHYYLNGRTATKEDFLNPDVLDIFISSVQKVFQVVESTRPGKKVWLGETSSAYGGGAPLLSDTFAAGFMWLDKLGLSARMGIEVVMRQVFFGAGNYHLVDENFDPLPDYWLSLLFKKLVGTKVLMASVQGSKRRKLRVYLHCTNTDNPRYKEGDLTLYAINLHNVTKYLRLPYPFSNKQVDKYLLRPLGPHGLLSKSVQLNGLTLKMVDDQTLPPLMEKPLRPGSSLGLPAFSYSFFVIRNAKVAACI
# Procedure: Cell lysates, heparanase activity and protein blotting. Preparation of cell lysates, protein blotting, and measurement of heparanase enzymatic activity were carried out as described (Vlodaysky I, et al. 1999, Nature Med 5(7):793-802; Arvatz et at, 2011, FASEB J 24(12):4969-4976). […] Likewise, cell lysates or tumor extracts were incubated (12 h, 37° C., pH 6.0) with the labeled ECM and sulfate labeled degradation fragments released into the incubation medium were analyzed by gel filtration on a Sepharose CL-6B column. Degradation fragments of HS side chains are eluted from Sepharose 6B at 0.5<Kav<0.8 (peak II, fractions 17-30). Nearly intact sulfate labeled HSPGs are eluted just after the void volume (Kav<0.2, peak I, fractions 1-10). […]
# FIG. 2A. […] The mixture was then applied onto dishes coated with ^35S-labeled ECM and heparanase enzymatic activity was determined as described under “Materials and Methods”. […] Blood vessels density was quantified by counting the number of CD31-positive vessels per field and is presented graphically at the right second panel. At least 25 fields of each treatment were counted. […]
# FIG. 3A. […] The mixture was then applied onto ^35S-labeled ECM-coated dishes and heparanase activity was determined as described above (lower panel). […] Quantification of the extent of CD45 staining is shown graphically in the lower panel. […]
# [2] = tested on: lymphoma cells; assay: Lymphoma cell death, propidium iodide FACS; type: cell-based; details: 50 μg/ml, 24 h
# Procedure: FIG. 6A. CAG myeloma. NOD/SCID mice (n=5) were inoculated (iv) with CAG-luciferase cells (5×10^6) and mice were treated with mAb 9E8 (600 μg/mouse every other day). Tumor growth was evaluated by IVIS imaging (left panels). Quantification of luciferase signals is shown graphically in the right panel. Note 2-3 fold decrease in tumor growth by the heparanase-neutralizing mAbs. FIG. 6B. Bone marrow was harvested from C57Bl/6 mice, cells were collected by centrifugation and heparanase activity was determined as described under ‘Materials and Methods’ (left panel). Corresponding bones were fixed in formalin and following de-calcification were subjected to immunostaining applying anti-heparanase antibody (right panel). FIG. 6C. The indicated cell line (0.25×10^6) was treated with antibodies 1453or 9E8 (50 μg/ml) for 24 h. Cells were then washed once with FACS buffer (PBS containing 2% FCS), incubated with Propidium Iodide (PI; 1 μg/ml) for 10 min and analyzed using FACS Cyan ADP system (Beckman Coulter, Inc). PI-positivity indicates a disturbed membrane and cell death.
molecule,measurement,setting,value
B1,neutralization of heparanase enzymatic activity,[1],neutralizes heparanase enzymatic activity to magnitude comparable with the polyclonal antibody #1453
same,lymphoma cell death (PI-positivity),[2],do not elicit lymphoma cell death
